Molecular target: T1, Factor IXa (UniProt P00740 47-191; P00740 227-461)
T1 construct: also called FIXa
Assay: functional Kd from intrinsic Xase FXa-generation assay; 0.25 nM FVIIIa, 0-20 nM FIXa, 200 nM FX, 20 uM phospholipids
Method: Kinetic analysis of FXa generation was performed by an intrinsic Xase assay, as described with modifications (Wilhelm, et al. (2021) Blood 137:2532-2543; Lollar, et al. (1989) Biochemistry 28 (2): 666-674). Activated FVIII (FVIIIa) was generated by incubating 25 nM FVIII with 100 nM thrombin for 30 seconds and thereafter quenched with hirudin (150 nM). […] At various time intervals (0.25-2 minutes), aliquots of the reaction mixture were quenched in 20 mM HEPES, 150 mM NaCl, 25 mM EDTA, 0.1% polyethylene glycol-8000, pH 7.4. The amount of FXa in each quenched sample was assessed using Spectrozyme® Xa by measuring absorbance at 405 nm in SpectraMax® 190 Microplate reader (Molecular Devices) and comparing the results to a prepared FXa standard curve.
TABLE 1 Biochemical Characterization of FVIII Proteins. Specific activity was determined by an aPTT based clotting assay measurement of clotting activity relative to protein concentration. Kinetic values were determined for FX activation by an intrinsic Xase assay using equimolar FVIIIa and FIXa (0.25 nM) 0.25 nM FVIIIa, 0.25 nM or 0-20 nM FIXa and 0-500 nM FX in the presence of 20 μM phospholipids. […] Data are represented as means ± SEM from at least two independent experiments.

T1 sequence (P00740 47-191 limits assumed, form in doubt, chain 1 of 2): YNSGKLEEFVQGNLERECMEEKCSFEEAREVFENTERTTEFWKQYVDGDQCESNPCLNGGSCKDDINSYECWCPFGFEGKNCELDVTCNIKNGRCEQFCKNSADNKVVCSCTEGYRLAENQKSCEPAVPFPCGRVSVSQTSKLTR
T1 sequence (P00740 227-461 limits assumed, form in doubt, chain 2 of 2): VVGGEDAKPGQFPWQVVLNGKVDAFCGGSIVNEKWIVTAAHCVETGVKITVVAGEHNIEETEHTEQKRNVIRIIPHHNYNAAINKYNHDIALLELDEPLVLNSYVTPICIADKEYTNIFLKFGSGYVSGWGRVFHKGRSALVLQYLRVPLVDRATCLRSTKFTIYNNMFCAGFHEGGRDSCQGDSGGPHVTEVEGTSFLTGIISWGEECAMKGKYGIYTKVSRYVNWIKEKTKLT

Row | Kd | Binder
1 | 1.2 nM | FVIIIa-QQVV (thrombin-activated B-domain deleted FVIII R336Q/R562Q/D519V/E665V) (other, also called FVIII-QQVV; FVIII-QQ/VV) chain 1: ATRRYYLGAVELSWDYMQSDLGELPVDARFPPRVPKSFPFNTSVVYKKTLFVEFTDHLFNIAKPRPPWMGLLGPTIQAEVYDTVVITLKNMASHPVSLHAVGVSYWKASEGAEYDDQTSQREKEDDKVFPGGSHTYVWQVLKENGPMASDPLCLTYSYLSHVDLVKDLNSGLIGALLVCREGSLAKEKTQTLHKFILLFAVFDEGKSWHSETKNSLMQDRDAASARAWPKMHTVNGYVNRSLPGLIGCHRKSVYWHVIGMGTTPEVHSIFLEGHTFLVRNHRQASLEISPITFLTAQTLLMDLGQFLLFCHISSHQHDGMEAYVKVDSCPEEPQLQMKNNEEAEDYDDDLTDSEMDVVRFDDDNSPSFIQIR chain 2: SVAKKHPKTWVHYIAAEEEDWDYAPLVLAPDDRSYKSQYLNNGPQRIGRKYKKVRFMAYTDETFKTREAIQHESGILGPLLYGEVGDTLLIIFKNQASRPYNIYPHGITDVRPLYSRRLPKGVKHLKDFPILPGEIFKYKWTVTVEVGPTKSDPRCLTRYYSSFVNMERDLASGLIGPLLICYKESVDQQGNQIMSDKRNVILFSVFDENRSWYLTENIQRFLPNPAGVQLEDPEFQASNIMHSINGYVFDSLQLSVCLHEVAYWYILSIGAQTDFLSVFFSGYTFKHKMVYVDTLTLFPFSGETVFMSMENPGLWILGCHNSDFRNRGMTALLKVSSCDKNTGDYYEDSYEDISAYLLSKNNAIEPR chain 3: SFQKKTRHYFIAAVERLWDYGMSSSPHVLRNRAQSGSVPQFKKVVFQEFTDGSFTQPLYRGELNEHLGLLGPYIRAEVEDNIMVTFRNQASRPYSFYSSLISYEEDQRQGAEPRKNFVKPNETKTYFWKVQHHMAPTKDEFDCKAWAYFSDVDLEKDVHSGLIGPLLVCHTNTLNPAHGRQVTVQEFALFFTIFDETKSWYFTENMERNCRAPCNIQMEDPTFKENYRFHAINGYIMDTLPGLVMAQDQRIRWYLLSMGSNENIHSIHFSGHVFTVRKKEEYKMALYNLYPGVFETVEMLPSKAGIWRVECLIGEHLHAGMSTLFLVYSNKCQTPLGMASGHIRDFQITASGQYGQWAPKLARLHYSGSINAWSTKEPFSWIKVDLLAPMIIHGIKTQGARQKFSSLYISQFIIMYSLDGKKWQTYRGNSTGTLMVFFGNVDSSGIKHNIFNPPIIARYIRLHPTHYSIRSTLRMELMGCDLNSCSMPLGMESKAISDAQITASSYFTNMFATWSPSKARLHLQGRSNAWRPQVNNPKEWLQVDFQKTMKVTGVTTQGVKSLLTSMYVKEFLISSSQDGHQWTLFFQNGKVKVFQGNQDSFTPVVNSLDPPLLTRYLRIHPQSWVHQIALRMEVLGCEAQDLY
2 | 1.6 nM | FVIIIa-VV (thrombin-activated B-domain deleted FVIII D519V/E665V) (other, also called FVIII-VV) chain 1: ATRRYYLGAVELSWDYMQSDLGELPVDARFPPRVPKSFPFNTSVVYKKTLFVEFTDHLFNIAKPRPPWMGLLGPTIQAEVYDTVVITLKNMASHPVSLHAVGVSYWKASEGAEYDDQTSQREKEDDKVFPGGSHTYVWQVLKENGPMASDPLCLTYSYLSHVDLVKDLNSGLIGALLVCREGSLAKEKTQTLHKFILLFAVFDEGKSWHSETKNSLMQDRDAASARAWPKMHTVNGYVNRSLPGLIGCHRKSVYWHVIGMGTTPEVHSIFLEGHTFLVRNHRQASLEISPITFLTAQTLLMDLGQFLLFCHISSHQHDGMEAYVKVDSCPEEPQLRMKNNEEAEDYDDDLTDSEMDVVRFDDDNSPSFIQIR chain 2: SVAKKHPKTWVHYIAAEEEDWDYAPLVLAPDDRSYKSQYLNNGPQRIGRKYKKVRFMAYTDETFKTREAIQHESGILGPLLYGEVGDTLLIIFKNQASRPYNIYPHGITDVRPLYSRRLPKGVKHLKDFPILPGEIFKYKWTVTVEVGPTKSDPRCLTRYYSSFVNMERDLASGLIGPLLICYKESVDQRGNQIMSDKRNVILFSVFDENRSWYLTENIQRFLPNPAGVQLEDPEFQASNIMHSINGYVFDSLQLSVCLHEVAYWYILSIGAQTDFLSVFFSGYTFKHKMVYVDTLTLFPFSGETVFMSMENPGLWILGCHNSDFRNRGMTALLKVSSCDKNTGDYYEDSYEDISAYLLSKNNAIEPR chain 3: SFQKKTRHYFIAAVERLWDYGMSSSPHVLRNRAQSGSVPQFKKVVFQEFTDGSFTQPLYRGELNEHLGLLGPYIRAEVEDNIMVTFRNQASRPYSFYSSLISYEEDQRQGAEPRKNFVKPNETKTYFWKVQHHMAPTKDEFDCKAWAYFSDVDLEKDVHSGLIGPLLVCHTNTLNPAHGRQVTVQEFALFFTIFDETKSWYFTENMERNCRAPCNIQMEDPTFKENYRFHAINGYIMDTLPGLVMAQDQRIRWYLLSMGSNENIHSIHFSGHVFTVRKKEEYKMALYNLYPGVFETVEMLPSKAGIWRVECLIGEHLHAGMSTLFLVYSNKCQTPLGMASGHIRDFQITASGQYGQWAPKLARLHYSGSINAWSTKEPFSWIKVDLLAPMIIHGIKTQGARQKFSSLYISQFIIMYSLDGKKWQTYRGNSTGTLMVFFGNVDSSGIKHNIFNPPIIARYIRLHPTHYSIRSTLRMELMGCDLNSCSMPLGMESKAISDAQITASSYFTNMFATWSPSKARLHLQGRSNAWRPQVNNPKEWLQVDFQKTMKVTGVTTQGVKSLLTSMYVKEFLISSSQDGHQWTLFFQNGKVKVFQGNQDSFTPVVNSLDPPLLTRYLRIHPQSWVHQIALRMEVLGCEAQDLY

From patent publication US20250250322A1 (CHILDREN S HOSPITAL OF PHILADELPHIA, published 2025)
